The values that follow come from the supplement of paper PMC10724198.

± gives the standard deviation of the averaged measurements.
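Note: PSI is a weighted mean of sequencing reads over stability bins, variants kept only with over 10 reads, mCherry proximal and sfGFP distal, peptide attached via GGGS linker.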

The test system of this data set is Saccharomyces cerevisiae. The data set is described as follows: protein stability index of tFT-peptide fusion (C-terminal peptide) (PSI (0-1 scale)); higher = more stable (slower turnover). The following applies: genetic background: wild type; temperature: 30 C.
As to KTKKKKKKKINK, the protein stability index was 0.711 ± 0.11. KTKNTQRKTEEN displayed a protein stability index of 0.653 ± 0.047. For KTKTKKKERNRK the value was 0.622 ± 0.088; for KTLYIAKTKSRA, 0.644 ± 0.038; for KTNLGNTKVKKK, 0.613 ± 0.025. For KTPAAVPWTRER the value was 0.693 ± 0.013; for KTPHSTARNFNR, 0.736 ± 0.092; for KTRNDQPQKFHN, 0.688 ± 0.034. For KVCIRFSCKIHM the value was 0.6396 ± 0.0021. Turning to KVIRVEALEILV, the protein stability index came to 0.544 ± 0.023. With KVKIKREKKKRK the figure was 0.672 ± 0.017.

The sequence KVQGGGKYPTYS came in with a protein stability index of 0.699 ± 0.058.

Consider KVSATIISFENI, for which the protein stability index amounted to 0.709 ± 0.1. For KVVGRLGVERVR the value was 0.753 ± 0.0052; for KWREQPRNDIVL, 0.604 ± 0.047; for KYDSPFFNWCSQ, 0.579 ± 0.031. As to KYKEEINEKIFN, the protein stability index stood at 0.646 ± 0.022. For KYKELEAAALQK the value was 0.732 ± 0.11; for KYRHDFNEVSKT, 0.665 ± 0.036; for LAEGFSLIRSHR, 0.685 ± 0.019.

Sequence LAFFEFVVDSLG had a protein stability index of 0.677 ± 0.018. With LAGGMTSRTVSI the figure was 0.716 ± 0.0073; with LAGVTLPRPSSA, 0.6633 ± 0.0046. In turn, LAIIKLRGDLSY yielded a protein stability index of 0.6646 ± 0.0019. For LAKRSKCCNRSR the value was 0.686 ± 0.018; for LALGICRLSSAG, 0.7599 ± 0.005; for LALSRVALFSHS, 0.679 ± 0.042.

LAPPPARLPLSP displayed a protein stability index of 0.687 ± 0.009. The sequence LARFRAEWGGVV registered a protein stability index of 0.691 ± 0.019. With LARWFILRDLIY the figure was 0.56 ± 0.0089; with LASARPLILSWP, 0.628 ± 0.019; with LASEPLPPYPPS, 0.704 ± 0.052. With LASPPFPRPPPP the figure was 0.57 ± 0.12; with LASSLTALRYPP, 0.742 ± 0.064.

In turn, LASYSSCYIRDF showed a protein stability index of 0.751 ± 0.017. With LATPPPPPLSPP the figure was 0.789 ± 0.19; with LAVKGIVNDSTI, 0.683 ± 0.0084. In turn, LCGVRGESGLEG displayed a protein stability index of 0.685 ± 0.031. For LCLFRSCVHSSA the value was 0.616 ± 0.049; for LCLRRLSCVGFG, 0.568 ± 0.022; for LCLWVWGSVVGG, 0.6123 ± 0.0015. For LCPNFFFFSSSP the value was 0.75 ± 0.017; for LCPRIAIVHPPS, 0.606 ± 0.027; for LCQCAFLSFSCF, 0.61642 ± 1.1e-05.

Turning to LCRPNELPDGLP, the protein stability index was determined as 0.664 ± 0.039.

In the case of LCSLWWGLVSGW, the protein stability index came out at 0.652 ± 0.029.

LCSPCSSLFHSQ yielded a protein stability index of 0.656 ± 0.032. For LCVGAGCAFEEG the value was 0.675 ± 0.025; for LCVWFGGLGLVG, 0.69 ± 0.019. For LDAVRCRDKAVV the value was 0.6537 ± 0.0036.

As to LDGAHLLLNTIP, the protein stability index was 0.687 ± 0.039. Take LDRTIPGPWPLR: the protein stability index is 0.731 ± 0.042. With LDVASTPPLSTL the figure was 0.704 ± 0.023; with LDVCDGVSGVRS, 0.647 ± 0.035; with LDYDTTNSMWLS, 0.586 ± 0.09. Regarding LECLSRGWSIYC, the protein stability index is 0.541 ± 0.05. For LEDGDRVYQVTI the value was 0.655 ± 0.012; for LEEGLYQQEDIR, 0.722 ± 0.076; for LEFEIYHSECTV, 0.685 ± 0.088. For LEFMTENSCACV the value was 0.652 ± 0.033. Sequence LEGGVREMRGDG yielded a protein stability index of 0.641 ± 0.053.

In the case of LEPHEIKERRPL, the protein stability index worked out at 0.721 ± 0.066. For LEQNCYYGEFSS, the protein stability index was found to be 0.665 ± 0.035.

As to LETEVDIYWLYR, the protein stability index was found to be 0.605 ± 0.048. For LEVHQGYLSSCH the value was 0.676 ± 0.12; for LFALSVHTHPYP, 0.73 ± 0.024; for LFDRRDTSTLLL, 0.707 ± 0.032. On to LFENNGIKCHKR, for which the protein stability index was found to be 0.683 ± 0.013. With LFFGVEWWRFEG the figure was 0.5604 ± 0.0023; with LFFLFSPFSRLP, 0.786 ± 0.089; with LFGAGGGGVEVG, 0.672 ± 0.14. With LFGPRCTSSSAV the figure was 0.689 ± 0.015; with LFGSMGVLGIGR, 0.672 ± 0.061.

As to LFIGKEGWVACL, the protein stability index was 0.562 ± 0.019. With LFIYSMKRFILE the figure was 0.631 ± 0.052.

In the case of LFKKVGGRSLVW, the protein stability index is 0.6813 ± 0.0036. For LFLAPFRLVLGV the value was 0.518 ± 0.01; for LFLLSLLDWGFR, 0.661 ± 0.072. As to LFLPPLFRRSPF, the protein stability index is 0.684 ± 0.018. For LFLWRFPSPFRA the value was 0.661 ± 0.036.
